In general, stoichiometry N refers to the number of molecules, sites or subunits per partner or assembly.

Results on one substance are retold here after article PMC6755086.

The assay has as its target Xanthamonas campestris p.v. campestris Class 2 OLD protein, full-length (Xcc^FL, residues 1-595) (Xanthamonas campestris p.v. campestris). The experiment in a line: SEC-MALS. (In general: In gel filtration, larger molecules generally elute earlier.)

“Xanthamonas campestris p.v. campestris Class 2 OLD protein, full-length (Xcc^FL, residues 1-595) (enzyme)”: the stoichiometry N came out at 4.
